Laboratory results taken from PMC8339350.
Several values for one entry are separate records, joined by “and”; a condition that tells them apart may be missing. Equal values may be shown once. Values belong to the substance of their own block, whether it stands above or below them.

Columns and labels:
AKAP18 (Homo sapiens) = AKAP18 (Homo sapiens) (UniProt Q9P0M2); settings: cited from earlier work
GST-AKAP18α (human) = assay: BLI; Octet RED96; anti-GST probes loaded with GST protein at 200 nM; room temperature; 50 mM Tris HCl, 200 mM NaCl, 5 mM DTT, 0.1% BSA, pH 8.0; steady-state analysis for KD
[1] = molecular target: full-length SPA17 (sperm autoantigenic protein 17), human (human) (UniProt Q15506); assay: SEC-MALS; Wyatt system on Superdex 200 Increase 10/300; 20 mM Tris, pH 8, 200 mM NaCl, 5 mM DTT; 0.5 ml/min

RIIα, sequence (P13861 2-404): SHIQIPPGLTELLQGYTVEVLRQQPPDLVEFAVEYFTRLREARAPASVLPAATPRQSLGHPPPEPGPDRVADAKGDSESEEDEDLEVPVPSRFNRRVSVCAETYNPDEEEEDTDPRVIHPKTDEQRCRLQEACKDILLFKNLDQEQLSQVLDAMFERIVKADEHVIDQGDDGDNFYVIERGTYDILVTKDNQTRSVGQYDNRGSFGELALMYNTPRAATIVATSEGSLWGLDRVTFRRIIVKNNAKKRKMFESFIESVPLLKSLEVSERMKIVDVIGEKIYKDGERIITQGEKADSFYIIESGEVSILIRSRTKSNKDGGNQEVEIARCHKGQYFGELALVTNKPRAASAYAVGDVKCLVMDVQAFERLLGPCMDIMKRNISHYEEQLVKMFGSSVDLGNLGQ

Substance: RIIα (from UniProt P13861)
Kd (AKAP18 (Homo sapiens)): 31 nM

Kd (GST-AKAP18α (human)): 82 nM
Substance: SPA17 1 to 75-ROPN1L 1 to 75 heterodimer (from UniProt Q15506 1-75; Q96C74 1-75) (complex)

stoichiometry N [1]: 4 and 2
Substance: full-length SPA17 (sperm autoantigenic protein 17), human (from UniProt Q15506 1-151) (natural protein)
